Laboratory results reported in patent US20220119534A1 (DRAGONFLY THERAPEUTICS, published 2022).
Where “and” joins values, the source holds several entries; their conditions need not be identical. Equal entries are not always repeated.

Experiments:
[1] = molecular target: T1, Human CD32a R131 (FcγRIIa R131) (human, UniProt P12318 36-218, limits assumed, biotinylated); experiment: SPR 25C, biotinylated receptor captured on SA chip
T1 construct: Bought recombinant receptor; also called hFcγRIIa R131; FcgRIIa R131
T1 sequence (looked up): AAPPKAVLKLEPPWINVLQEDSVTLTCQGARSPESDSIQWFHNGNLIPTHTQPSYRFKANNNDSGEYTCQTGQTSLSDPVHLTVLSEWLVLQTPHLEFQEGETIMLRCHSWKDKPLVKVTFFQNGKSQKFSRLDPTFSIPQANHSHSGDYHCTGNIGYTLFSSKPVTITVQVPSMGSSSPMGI

[2] = molecular target: T2, Human CD32a H131 (FcγRIIa H131) (human, UniProt P12318 36-218, limits assumed, biotinylated); experiment: SPR 25C, biotinylated receptor captured on SA chip
T2 construct: Bought recombinant receptor; also called hFcγRIIa H131; FcgRIIa H131
T2 sequence (looked up): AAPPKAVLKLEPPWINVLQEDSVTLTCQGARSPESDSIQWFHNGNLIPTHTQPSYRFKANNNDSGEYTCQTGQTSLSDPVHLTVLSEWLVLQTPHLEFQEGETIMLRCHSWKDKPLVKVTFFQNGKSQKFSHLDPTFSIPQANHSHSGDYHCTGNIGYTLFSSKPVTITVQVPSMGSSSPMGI

[3] = molecular target: T3, Human CLEC12A-His (recombinant, K244 WT) (human, UniProt Q5QGZ9 65-265); experiment: SPR, two-state fit; after pH 5.0, 40C, 2 wks
T3 construct: Made in house (Dragonfly Tx); also called hCLEC12A; hCLEC12A-His; not shown: His tag
T3 sequence: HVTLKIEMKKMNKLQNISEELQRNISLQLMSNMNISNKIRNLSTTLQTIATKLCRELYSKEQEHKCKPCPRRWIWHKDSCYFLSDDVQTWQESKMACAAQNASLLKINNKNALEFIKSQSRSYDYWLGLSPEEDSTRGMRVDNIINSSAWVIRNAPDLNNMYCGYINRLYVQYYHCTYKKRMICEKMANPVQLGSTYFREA

[4] = molecular target: T4, mFc-hNKG2D (recombinant mFc-tagged human NKG2D dimer) (human, UniProt P26718 73-216); experiment: SPR; after pH 5.0, 40C, 2 wks (n = 2)
T4 construct: extracellular domain; Made in house; not shown: mouse Fc tag
T4 sequence (looked up): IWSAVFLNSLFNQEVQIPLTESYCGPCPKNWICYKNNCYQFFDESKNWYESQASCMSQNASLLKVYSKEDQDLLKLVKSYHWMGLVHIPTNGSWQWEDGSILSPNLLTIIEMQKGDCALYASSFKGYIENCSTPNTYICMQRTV

Human CD32a H131 = molecular target: T5, Human CD32a H131 (human, UniProt P12318 36-218, limits assumed, biotinylated); experiment: SPR, steady state fit; average for AB0192
T5 construct: Bought recombinant receptor; also called hFcγRIIa H131
T5 sequence (looked up): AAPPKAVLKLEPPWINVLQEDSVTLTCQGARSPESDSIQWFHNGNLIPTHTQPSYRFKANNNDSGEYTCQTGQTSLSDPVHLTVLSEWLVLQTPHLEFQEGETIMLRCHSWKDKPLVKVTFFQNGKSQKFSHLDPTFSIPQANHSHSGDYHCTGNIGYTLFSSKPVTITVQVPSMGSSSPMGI

Human CD32a R131 = molecular target: T6, Human CD32a R131 (human, UniProt P12318 36-218, limits assumed, biotinylated); experiment: SPR, steady state fit; average for AB0192
T6 construct: Bought recombinant receptor; also called hFcγRIIa R131
T6 sequence (looked up): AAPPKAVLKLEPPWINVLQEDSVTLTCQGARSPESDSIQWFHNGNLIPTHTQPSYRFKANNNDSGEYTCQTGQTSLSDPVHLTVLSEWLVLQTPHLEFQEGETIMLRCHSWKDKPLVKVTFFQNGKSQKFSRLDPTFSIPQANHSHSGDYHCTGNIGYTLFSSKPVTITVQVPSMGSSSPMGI

mFc-hNKG2D = molecular target: T7, mFc-hNKG2D (human, UniProt P26718 73-216); experiment: SPR; control sample (pH 5 stress study)
T7 construct: extracellular domain; Recombinant mFc-tagged NKG2D dimer, made in house; also called human NKG2D; not shown: mouse Fc tag
T7 sequence (looked up): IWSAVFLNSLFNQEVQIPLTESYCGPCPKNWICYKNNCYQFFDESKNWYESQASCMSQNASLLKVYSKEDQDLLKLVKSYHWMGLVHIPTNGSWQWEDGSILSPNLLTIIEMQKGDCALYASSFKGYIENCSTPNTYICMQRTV

Human CLEC12A-His = molecular target: T8, Human CLEC12A-His (human, UniProt Q5QGZ9 65-265); experiment: SPR; control sample (pH 5 stress study)
T8 construct: Recombinant soluble protein made in house; also called hCLEC12A-His; hCLEC12A; not shown: His tag
T8 sequence: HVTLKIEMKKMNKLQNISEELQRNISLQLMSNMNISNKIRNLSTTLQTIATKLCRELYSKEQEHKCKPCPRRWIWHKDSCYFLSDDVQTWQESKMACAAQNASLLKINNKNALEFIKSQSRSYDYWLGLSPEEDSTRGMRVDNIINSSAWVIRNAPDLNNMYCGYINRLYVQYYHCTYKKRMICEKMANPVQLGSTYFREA

Human CD16a V158 = molecular target: T9, Human CD16a V158 (human, UniProt P08637 17-208, biotinylated); experiment: SPR; control sample (pH 5 stress study)
T9 construct: Bought recombinant receptor; also called hCD16a (V158); hFcγRIIIa V158

[5] = molecular target: T10, recombinant human CD16a F158 (human, UniProt P08637 17-208); experiment: SPR 25C, steady state, average
T10 construct: also called FcγRIIIa F158

[6] = molecular target: T11, recombinant cynomolgus FcRn (cynomolgus monkey, UniProt Q8SPV9 24-297; Q8SPW0 21-119); experiment: SPR 25C, pH 6.0, steady state, average; pH 6.0; average of four replicates
T11 construct: also called cFcRn; cyno FcRn
T11 sequence (Q8SPV9 24-297 limits assumed, chain 1 of 2): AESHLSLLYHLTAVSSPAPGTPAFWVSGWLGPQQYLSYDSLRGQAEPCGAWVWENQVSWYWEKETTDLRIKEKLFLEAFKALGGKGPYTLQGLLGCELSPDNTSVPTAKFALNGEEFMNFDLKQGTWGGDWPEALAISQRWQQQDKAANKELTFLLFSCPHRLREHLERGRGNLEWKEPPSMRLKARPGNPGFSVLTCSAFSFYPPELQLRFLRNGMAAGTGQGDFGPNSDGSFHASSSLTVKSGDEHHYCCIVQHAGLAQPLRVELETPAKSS
T11 sequence (Q8SPW0 21-119 limits assumed, chain 2 of 2): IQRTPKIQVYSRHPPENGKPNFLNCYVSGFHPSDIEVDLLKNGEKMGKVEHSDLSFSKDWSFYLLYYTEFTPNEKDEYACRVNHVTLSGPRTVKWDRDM

T9 sequence (P08637 17-208 F176V limits assumed): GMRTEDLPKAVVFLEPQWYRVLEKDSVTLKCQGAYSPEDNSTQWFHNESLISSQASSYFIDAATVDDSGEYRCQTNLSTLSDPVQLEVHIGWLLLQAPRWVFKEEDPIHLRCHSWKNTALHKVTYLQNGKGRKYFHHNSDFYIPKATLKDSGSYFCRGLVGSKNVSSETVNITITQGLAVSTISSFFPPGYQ
T10 sequence (P08637 17-208 limits assumed): as the sequence (P08637 17-208 F176V limits assumed) above, with V160F counted along it

B1: AB0089 TriNKET (bispecific antibody, human IgG1, kappa)
chain: QLQLQESGPGLVKPSETLSLTCTVSGFSLTNYGLHWIRQPPGKCLEWIGVIWVGGATDYNPSLKSRVTISVDTSKNQFSLKLSSVQAADTAVYYCAKGDYGDTLDYWGQGTLVTVSSGGGGSGGGGSGGGGSGGGGSDIQMTQSPSSLSASVGDRVTITCHASQNINFWLSWYQQKPGKAPKLLIYEASNLHTGVPSRFSGSGSGTDFTLTISSLQPEDFATYYCQQSHSYPLTFGCGTKLEIKGSDKTHTCPPCPAPELLGGPSVFLFPPKPKDTLMISRTPEVTCVVVDVSHEDPEVKFNWYVDGVEVHNAKTKPREEQYNSTYRVVSVLTVLHQDWLNGKEYKCKVSNKALPAPIEKTISKAKGQPREPRVYTLPPCRDELTKNQVSLTCLVKGFYPSDIAVEWESNGQPENNYKTTPPVLVSDGSFTLYSKLTVDKSRWQQGNVFSCSVMHEALHNHYTQKSLSLSPG
heavy: EVQLVESGGGLVKPGGSLRLSCAASGFTFSSYSMNWVRQAPGKGLEWVSSISSSSSYIYYADSVKGRFTISRDNAKNSLYLQMNSLRAEDTAVYYCARGAPIGAAAGWFDPWGQGTLVTVSSASTKGPSVFPLAPSSKSTSGGTAALGCLVKDYFPEPVTVSWNSGALTSGVHTFPAVLQSSGLYSLSSVVTVPSSSLGTQTYICNVNHKPSNTKVDKKVEPKSCDKTHTCPPCPAPELLGGPSVFLFPPKPKDTLMISRTPEVTCVVVDVSHEDPEVKFNWYVDGVEVHNAKTKPREEQYNSTYRVVSVLTVLHQDWLNGKEYKCKVSNKALPAPIEKTISKAKGQPREPQVCTLPPSRDELTENQVSLTCLVKGFYPSDIAVEWESNGQPENNYKTTPPVLDSDGSFFLYSWLTVDKSRWQQGNVFSCSVMHEALHNHYTQKSLSLSPG
light: DIQMTQSPSSVSASVGDRVTITCRASQGISSWLAWYQQKPGKAPKLLIYAASSLQSGVPSRFSGSGSGTDFTLTISSLQPEDFATYYCQQGVSFPRTFGGGTKVEIKRTVAAPSVFIFPPSDEQLKSGTASVVCLLNNFYPREAKVQWKVDNALQSGNSQESVTEQDSKDSTYSLSSTLTLSKADYEKHKVYACEVTHQGLSSPVTKSFNRGEC
notes: F3' format heterodimer of three chains; human IgG1 Fc with EW-RVT and Y349C/S354C mutations; also called AB0089 Lot AB0089-002; CLEC12A TriNKET AB0089
Kd [1]: 1340 nM and 1020 nM and 1600 nM and 1060 nM
Kd [2]: 954 nM and 823 nM and 930 nM and 895 nM
Kd [3]: 1 nM
Kd [4]: 703 nM
koff [4]: 0.131 s⁻¹
kon [4]: 187000 M⁻¹ s⁻¹

B2: AB0192 TriNKET (other)
chain: EVQLVESGGGVVQPGGSLRLSCAASGFTFNAFGMHWVRQAPGKCLEWVAFISSGSTSIYYANTVKGRFTISRDNSKNTLYLQMNSLRAEDTAVYYCARDGYPTGGAMDYWGQGTSVTVSSGGGGSGGGGSGGGGSGGGGSDIQMTQSPSSLSASVGDRVTITCKASQDIYNYLSWFQQKPGKAPKPLIYRANILVSGVPSRFSGSGSGQDYTFTISSLQPEDIATYYCLQFDAFPFTFGCGTKLEIKGSDKTHTCPPCPAPELLGGPSVFLFPPKPKDTLMISRTPEVTCVVVDVSHEDPEVKFNWYVDGVEVHNAKTKPREEQYNSTYRVVSVLTVLHQDWLNGKEYKCKVSNKALPAPIEKTISKAKGQPREPRVYTLPPCRDELTKNQVSLTCLVKGFYPSDIAVEWESNGQPENNYKTTPPVLVSDGSFTLYSKLTVDKSRWQQGNVFSCSVMHEALHNHYTQKSLSLSPG
heavy: EVQLVESGGGLVKPGGSLRLSCAASGFTFSSYSMNWVRQAPGKGLEWVSSISSSSSYIYYADSVKGRFTISRDNAKNSLYLQMNSLRAEDTAVYYCARGAPIGAAAGWFDPWGQGTLVTVSSASTKGPSVFPLAPSSKSTSGGTAALGCLVKDYFPEPVTVSWNSGALTSGVHTFPAVLQSSGLYSLSSVVTVPSSSLGTQTYICNVNHKPSNTKVDKKVEPKSCDKTHTCPPCPAPELLGGPSVFLFPPKPKDTLMISRTPEVTCVVVDVSHEDPEVKFNWYVDGVEVHNAKTKPREEQYNSTYRVVSVLTVLHQDWLNGKEYKCKVSNKALPAPIEKTISKAKGQPREPQVCTLPPSRDELTENQVSLTCLVKGFYPSDIAVEWESNGQPENNYKTTPPVLDSDGSFFLYSWLTVDKSRWQQGNVFSCSVMHEALHNHYTQKSLSLSPG
light: DIQMTQSPSSVSASVGDRVTITCRASQGISSWLAWYQQKPGKAPKLLIYAASSLQSGVPSRFSGSGSGTDFTLTISSLQPEDFATYYCQQGVSFPRTFGGGTKVEIKRTVAAPSVFIFPPSDEQLKSGTASVVCLLNNFYPREAKVQWKVDNALQSGNSQESVTEQDSKDSTYSLSSTLTLSKADYEKHKVYACEVTHQGLSSPVTKSFNRGEC
notes: the condition stands under assay; also called AB0192 Lot AB0192-005
Kd (Human CD32a H131): 1010 nM
Kd (Human CD32a R131): 1400 nM
Kd (mFc-hNKG2D): 588 nM
koff (mFc-hNKG2D): 0.122 s⁻¹
kon (mFc-hNKG2D): 208000 M⁻¹ s⁻¹
Kd (Human CLEC12A-His): 1.68 nM
koff (Human CLEC12A-His): 0.00129 s⁻¹
kon (Human CLEC12A-His): 771000 M⁻¹ s⁻¹
Kd (Human CD16a V158): 171 nM
koff (Human CD16a V158): 0.0199 s⁻¹
kon (Human CD16a V158): 117000 M⁻¹ s⁻¹

B3: F3'-1602 TriNKET (other)
chain: QLQLQESGPGLVKPSETLSLTCTVSGFSLTNYGLHWIRQPPGKCLEWIGVIWSGGKTDYNPSLKSRVTISKDTSKNQFSLKLSSVQAADTAVYYCAKYDYDDSLDYWGQGTLVTVSSGGGGSGGGGSGGGGSGGGGSDIQMTQSPSSLSASVGDRVTITCHASQNINFWLSWYQQKPGKAPKLLIYEASNLHTGVPSRFSGSGSGTRFTLTISSLQPEDIATYYCQQSHSYPLTFGCGTKLEIKGSDKTHTCPPCPAPELLGGPSVFLFPPKPKDTLMISRTPEVTCVVVDVSHEDPEVKFNWYVDGVEVHNAKTKPREEQYNSTYRVVSVLTVLHQDWLNGKEYKCKVSNKALPAPIEKTISKAKGQPREPRVYTLPPCRDELTKNQVSLTCLVKGFYPSDIAVEWESNGQPENNYKTTPPVLVSDGSFTLYSKLTVDKSRWQQGNVFSCSVMHEALHNHYTQKSLSLSPG
heavy: EVQLVESGGGLVKPGGSLRLSCAASGFTFSSYSMNWVRQAPGKGLEWVSSISSSSSYIYYADSVKGRFTISRDNAKNSLYLQMNSLRAEDTAVYYCARGAPIGAAAGWFDPWGQGTLVTVSSASTKGPSVFPLAPSSKSTSGGTAALGCLVKDYFPEPVTVSWNSGALTSGVHTFPAVLQSSGLYSLSSVVTVPSSSLGTQTYICNVNHKPSNTKVDKKVEPKSCDKTHTCPPCPAPELLGGPSVFLFPPKPKDTLMISRTPEVTCVVVDVSHEDPEVKFNWYVDGVEVHNAKTKPREEQYNSTYRVVSVLTVLHQDWLNGKEYKCKVSNKALPAPIEKTISKAKGQPREPQVCTLPPSRDELTENQVSLTCLVKGFYPSDIAVEWESNGQPENNYKTTPPVLDSDGSFFLYSWLTVDKSRWQQGNVFSCSVMHEALHNHYTQKSLSLSPG
light: DIQMTQSPSSVSASVGDRVTITCRASQGISSWLAWYQQKPGKAPKLLIYAASSLQSGVPSRFSGSGSGTDFTLTISSLQPEDFATYYCQQGVSFPRTFGGGTKVEIKRTVAAPSVFIFPPSDEQLKSGTASVVCLLNNFYPREAKVQWKVDNALQSGNSQESVTEQDSKDSTYSLSSTLTLSKADYEKHKVYACEVTHQGLSSPVTKSFNRGEC
notes: CLEC12A scFv-Fc, NKG2D A49MI Fab-Fc, human IgG1 Fc; also called AB0237
Kd [5]: 1110 nM
Kd [6]: 1300 nM
